1 molecule from patent US9040462 (RIGEL PHARMACEUTICALS, dated 2015) can be followed below.

This assay concerns the target Tet DNA binding domain only (UniProt P04483 1-207). Briefly: mammalian two-hybrid luciferase reporter, Phoenix cells. (In general: Reporter assays use an easily measured gene product as a stand-in for the process of interest.)

Chain of Tet DNA binding domain only (P04483 whole entry, the tested form may be a part): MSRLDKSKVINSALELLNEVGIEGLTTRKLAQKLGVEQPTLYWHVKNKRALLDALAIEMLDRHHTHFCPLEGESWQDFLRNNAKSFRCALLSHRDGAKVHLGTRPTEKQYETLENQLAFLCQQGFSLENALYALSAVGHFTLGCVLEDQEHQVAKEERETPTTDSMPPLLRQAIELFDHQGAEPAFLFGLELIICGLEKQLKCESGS

B1: VP16 activation domain only (other)
chain: APPTDVSLGDELHLDGEDVAMAHADALDDFDLDMLGDGDSPGPGFTPHDSAPYGALDMADFEFEQMFTDALGIDEYGG
notes: also called pVACT
B1: the binding result was “no binding”.
